Data as given in the supplement of paper PMC9170038.

Columns and labels:
[1] = test system: MS2 coat protein; test: apparent KD of MS2 coat protein; designed switch direction (-1 OFF switch, 1 ON switch): 1; higher = weaker reporter binding
Method in brief: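 Designed RNA switches were transcribed on Illumina chips by stalled E. coli RNA polymerase and titrated with SNAP-549-labelled MS2 coat protein from 0.7 or 1.5 nM, doubling to 3 µM. Step length ran from 0.8–1.5 h at the lowest concentration to 10–20 min at the highest. The apparent KD is the median over clusters for each design, from curve-fitted normalised cluster fluorescence.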

[2] = test system: MS2 coat protein; test: apparent KD of MS2 coat protein; higher = weaker reporter binding; settings: Eterna round: R107
Method in brief: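 Normalised binding curves from single clusters were fitted, and the median fit for each design is given as apparent KD. The clusters held designed RNA switches transcribed on-chip from Illumina sequencing clusters. These were titrated with SNAP-549-labelled MS2 coat protein (twofold steps from 0.7 or 1.5 nM to 3 µM, 0.8–1.5 h to 10–20 min per step) in 100 mM Tris-HCl pH 7.5, 80 mM KCl, 4 mM MgCl2, without or with constant ligand.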

[3] = Eterna round: R95, input ligand: FMN 200 uM
[4] = Eterna round: R95, input ligand: microRNA oligo, concentration not stated
[5] = Eterna round: R95, input ligand: none
[6] = input ligand: theophylline 20 uM
[7] = input ligand: theophylline 2 mM
[8] = input ligand: tryptophan 2.4 mM

Sequence | apparent KD of MS2 coat protein ([2]; input ligand: arginine 13.2 mM) [nM] | apparent KD of MS2 coat protein [2, 6] [nM] | apparent KD of MS2 coat protein [2, 7] [nM] | apparent KD of MS2 coat protein [2, 8] [nM] | other results
AUAAAACAUGAGGAUCACCCAUGUCUACAAAGUCGAGGAUAUGGGCAAAUAAAAUAAGAACCAGAAGGCGAAUAAU [salish99_ss1_r3_044] (puzzle: Same State 1) |  |  |  |  | apparent KD of MS2 coat protein [1, 3]: 62.6 nM; apparent KD of MS2 coat protein [1, 4]: 223 nM; apparent KD of MS2 coat protein [1, 5]: 275 nM
AUGUGGAAGCCACAGGAUAUACUAGGGUACACAUGAGGAUCACCCAUGUGCGGCUAAAAGUGCUAGUAGAAGGGUGGUAAAGAAA [Diartire] (puzzle: Same State 2) |  |  |  |  | apparent KD of MS2 coat protein [1, 3]: 13.8 nM; apparent KD of MS2 coat protein [1, 4]: 12.5 nM; apparent KD of MS2 coat protein [1, 5]: 15 nM
GUUACAUGAGGAUCACCCAUGUAUGUGUGGGAGUAAGUGUCUUAGGAUAUCUAUGUUUUAAUUUAAGAGAAGGAAGAUUGUUGU [JMF's solution 71] (Eterna round: R96, puzzle: Same State NG 3) |  |  |  |  | apparent KD of MS2 coat protein ([1]; input ligand: FMN 200 uM): 102 nM; apparent KD of MS2 coat protein ([1]; input ligand: microRNA oligo, concentration not stated): 102 nM; apparent KD of MS2 coat protein ([1]; input ligand: none): 115 nM
GACAAUCUAUCUGAGGAUAUCAUGAAUAAAACAUGAGGAUCACCCAUGUGCAGGAUAACUGCAAAUGAGAAGGCAGAUAGAUUGG [Mat - Same State 2 - Mod - D9] (puzzle: Same State 2) |  |  |  |  | apparent KD of MS2 coat protein [1, 3]: 9.21 nM; apparent KD of MS2 coat protein [1, 4]: 20 nM; apparent KD of MS2 coat protein [1, 5]: 18 nM
UACAAUCUAUCUGAGGAUAUCAUGCAUUACACAUGAGGAUCACCCAUGUGCAGGAAAACUGCAUAUGAGAAGGCAGAUAGAUUGU [salish99_ss2_r3_066] (puzzle: Same State 2) |  |  |  |  | apparent KD of MS2 coat protein [1, 3]: 20.1 nM; apparent KD of MS2 coat protein [1, 4]: 457 nM; apparent KD of MS2 coat protein [1, 5]: 472 nM
CUUGUUUAUGGAAGGAGCGCGAUUACAUAACAUGAGGAUCACCCAUGUAAGAAAUUAUUCAUGCAGGUAGGUCGCCAUGGGUGGG [Same State Arginine B GF7] | 111 | 105 | 258 | 120 | apparent KD of MS2 coat protein ([2]; input ligand: none): 195 nM
CAAACAUGAGGAUCACCCAUGUAAUCAGAUACCAGUGACGAAAGUCACCCUUGGCAGCUGAGUACAUUAGUUCUAAGGUGUUUGA [EThA NP+V+V2 #6 +-Same Structure] | 32.7 | 61 |  | 35.7 | 
CGAUCUUUCGAAAGAAGGAUCGAGUCUGAUACCAGAGACGAAAGUCUCCCUUGGCAGCAGUGCCAACAUGAGGAUCACCCAUGUA [Theophylline A 9] | 20.7 | 26.3 |  | 18.9 | 
UGAUACCAGUCGGCCGCCACUACAUGAGGAUCACCCAUGUAUGGGUCAAUGCUAGAUACUAGCAGUAGGACCGGGACUGGUAUCU | 11.4 | 14.8 | 13.2 |  | 
AAUAACUUGAGGAUCACCCAAGUAAAAGAUACCAGAGUGAUGAUCCUCCCUUGGCAGCUUAACGCUGAUUGAUUACAAUCAGCGA | 63.2 | 182 | 121 | 45.8 | apparent KD of MS2 coat protein ([2]; input ligand: none): 62.3 nM
GGGUACAUCGCGGCCGCCACUCGUGUAAAUACAUGAGGAUCACCCAUGUCGAUGGAGACAUCGGAGAGGACCGGGUGAUGUACCG | 110 | 114 | 81.5 | 46.7 | apparent KD of MS2 coat protein ([2]; input ligand: none): 81 nM
GACCUUAUCUGAAGGAGCGAGGUAAAUAGGGUUGAGCAUACAUGAGGAUCACCCAUGUGGCCUCAGGUAGGUCGCAGAUAAGACA [Exclusion Arginine B GF29] | 149 | 308 | 63.4 | 137 | apparent KD of MS2 coat protein ([2]; input ligand: none): 352 nM
AUCGUACCUGAAGAUACCAGCAUGUGAUCAUAACAUGAGGAUCACCCAUGUAAUCAGUGAUGCCCUUGGCAGCUUGAUCGGUACA [Same State - Theophylline B (Freestyle 12)] | 39.6 | 41.3 |  | 30.2 | 
ACCAUGUAAUCAGAUACCAGACAUCUUUUAAAUCAUAUUACAUGAGGAUCACCCAUGUUGGUCCCUUGGCAGCUGAAAUAUUUCA [JR_Nu_SSTheophyB_Sub025] | 144 | 351 |  | 529 | 
AUCCUCAAGAAUGAUACCAGACCAAACAUGAGGAUCACCCAUGUAUCAGGCAAUUGUUACGUCCCUUGGCAGCAUGUAAGCCGAC [Theo B SS t2] | 35.5 | 70.2 |  | 39.2 | 
ACAUGAGGAUGGGAUACCAGAUACAUGAGGAUCACCCAUACAUGAGGAUCACCCAUGUCCGUCCCUUGGCAGCCCAACAUGAGGA [Exclusion Theophylline B] | 77.4 | 153 |  | 150 | 
AAUUCAAUUUUCUUGAUGUAUUAUAUAUUUCGAGGACCGGUACGGCCGCCACUCGUUAAUUACAUGAGGAUCACCCAUGUUAGCU [JR_ExcTryptoA_Sub009] | 13.6 | 17.5 | 16.2 |  | 
GGUAUGUAUUCGGAAACGAAUGCAUACCAUCGAGGACCGGUACGGCCGCCACUCGUGGCUGAUCAACAUGAGGAUCACCCAUGUA [Ex Tryptophan A 1] | 36.1 | 94.3 | 83.4 | 50.4 | apparent KD of MS2 coat protein ([2]; input ligand: none): 85.9 nM
